# Test results published in patent publication US20060292151A1, “L-SIGN polymorphisms and methods involving use of same” (priority 2004, published 2006).
# B1: soluble CD81 ECL2 peptide: soluble CD81 ECL2 peptide (peptide)
# peptide: FVNKDQIAKDVKQFYDQALQQAVVDDDANNAKAVVKTFHETLDCCGSSTLTALTTSVLKNNLCPSGSNIISNLFKEDCHQKIDDLFSGK
# Test system: HCV pseudovirion entry
# Test: HCV pseudovirion entry into target cells
# Type: cell-based
# Conditions: E1/E2-mediated entry of pseudovirions
# Excerpt: The procedure of Bartosch et al. (2003b) was used to generate retroviral particles pseudotyped with HCV envelope glycoproteins (HCV pseudovirus particles; HCVpp). Briefly, in order to generate HCV pseudovirions, 293T cells were cotransfected with HIV-1-based (pLenti6, Invitrogen) or MMLV-based (pFB, Stratagene, La Jolla, Calif.) retroviral vectors and vectors expressing structural genes, including Gag, Pol and envelope glycoproteins (see FIG. 2). In addition, the HIV-1-based vector was cotransfected with a Rev-encoding plasmid to enable transport of genomic RNAs from the nucleus to the cytoplasm.
# Antibodies against E2 as well as HCV+ sera inhibited E1/E2-mediated entry.
molecule,measurement,value
B1,inhibition of HCV pseudovirion entry,inhibited HCV pseudovirion entry
